# Reference: paper PMC6199252, “Characterization and improved properties of Glutamine synthetase from Providencia vermicola by site-directed mutagenesis” (Scientific Reports, 2018)
# Target: the molecule itself
# Assay: SEC; tag-free purified protein on Superose 6 10/300 GL, 25 mM Tris-HCl pH 7.5, 150 mM NaCl; oligomer judged from the elution volume; data not shown
protein,measurement,value
"Glutamine synthetase from Providencia vermicola (enzyme, UniProt A0AAX3RWL7 1-469, looked up, Glutamine synthetase (GSI beta type, EC 6.3.1.2) of Providencia vermicola strain CGS6, cloned from genomic DNA; ORF of 1410 base pairs encoding 469 amino acids; Cloned between BamHI and XhoI of pGEX-6P-1; also called PveGS; GS; source: E. coli BL21 (DE3), pGEX-6p-1-PveGS, purified (GST Gene Fusion System, eluted from the GST tag by 3C protease); copies: 12) MSSEHVLSLIEEHKIKFIDLRFTDTKGKEQHITIPAHQVNEDFFEEGKMFDGSSIGGWKGINESDMVLMPDPSTAMLDPFFADPTLIIRCDILEPGTMQGYDRDPRSISQRAEDFLRSSGIADTVLFGPEPEFFIFDDIRFGNSMHSSYYHIDDIEAAWNTGTKYEGGNKGHRPGVKGGYFPVPPVDSSQDLRSAMCTTMEEMGLVVEAHHHEVATAGQNEVACRFNTMTKKADETQIYKYVVHNVAHAYGKTATFMPKPLVGDNGSGMHCHMSLSKDGINLFAGDKYGGLSEMALYYIGGIIKHARALNAFTNPTTNSYKRLVPGFEAPVMLAYSARNRSASIRIPVVASTKARRIEVRFPDPAANPYLAFAAQLMAGLDGIINKIHPGDAMDKNLYDLPPEEAKEIPTVAGSLEEALNELDKNREFLTRGGVFTNDAIDAYIELLRNDIQRVRMTPHPLEFEMYYSV",stoichiometry N,12
